Experimental findings from PMC2851846 (Oncogene, 2010) are described below.

In assay [1] the target is T1, pCREB/KIX ternary complex on CRE DNA (pCREB/KIX/CRE) (UniProt P16220-2 1-327; P45481 588-683, phosphoserine at 133 (Ser133)). Briefly: native gel or EMSA.
For assay [2], the target named is T1, pCREB/KIX ternary complex on CRE DNA …. Briefly: native gel or EMSA. This is another data set of the same source.

T1 sequence (P16220 whole entry, chain 1 of 2): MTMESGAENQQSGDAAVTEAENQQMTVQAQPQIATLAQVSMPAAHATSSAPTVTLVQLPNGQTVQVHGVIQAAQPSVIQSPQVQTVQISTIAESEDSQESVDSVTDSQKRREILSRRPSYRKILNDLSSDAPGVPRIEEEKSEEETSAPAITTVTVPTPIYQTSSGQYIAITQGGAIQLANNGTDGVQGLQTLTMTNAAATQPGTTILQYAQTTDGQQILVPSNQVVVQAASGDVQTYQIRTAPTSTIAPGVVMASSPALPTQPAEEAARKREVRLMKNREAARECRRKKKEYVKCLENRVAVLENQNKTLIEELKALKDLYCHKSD
T1 sequence (P45481 588-683, chain 2 of 2): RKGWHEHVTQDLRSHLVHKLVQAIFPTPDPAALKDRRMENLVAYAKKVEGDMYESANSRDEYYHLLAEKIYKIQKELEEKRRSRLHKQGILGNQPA

B1: HTLV-1 Tax protein, Tax-His6 (natural protein)
chain: not shown
B1: in assay [1], the “apparent Kd on vCRE DNA” value is 0.0024 ± 0.0001 µM. Moreover, in assay [2], the “apparent Kd on cyclin D1 CRE DNA” value came out at 0.034 ± 0.005 µM.
